Assay results as given in publication PMC8866119 (Nature, 2021).

B1: BD55-5267 (antibody, V domains shown)
VH: QVQLQESGPGLVKPSGTLSLTCAVSGGSISSSNWWSWVRQPPGKGLEWIGEIYHSGSTNYNPSLKSRVTISVDKSKNKFSLKLSSVTAADTAVYFCARAGWIESGYDAFVGYFDYWGQGTLVTVSS
VL: DIQMTQSPSSLSASVGDRVTITCRASQGISSSLAWYQQKPGKAPDLLLYAASGLESGVPSRFSGSGSGTDFTLSISSLQPEDFATYYCQQYYSPPRTFGQGTKLEIK
B2: S304 (antibody, V domains shown)
VH: EVQLVESGGGLVQPGGSLRLSCAASGFTFSSYDMHWVRQTTGKGLEWVSTIGTAGDTYYPDSVKGRFTISREDAKNSLYLQMNSLRAGDTAVYYCARGDSSGYYYYFDYWGQGTLLTVSS
VL: DIEMTQSPSSLSAAVGDRVTITCRASQSIGSYLNWYQQKPGKAPKLLIYAASSLQSGVPSRFSGSGSGTDFTLTISSLQPEDFAIYYCQQSYVSPTYTFGPGTKVDIK
B3: BD55-5259 (antibody, V domains shown)
VH: QITLKESGPTLVKPTQTLTLTCTFSGFSLTMPEVGVAWVRQPPGKALEWLALIYGDDNKRYSPSLESRLTITKDSSKNQVVLTMTNLDSVDTATYYCARRKFLWDSDPVAFDYWGLGTLVIVSS
VL: DIVMTQTPLSLPVTLGQPASISCRSSQSLVHIDGNIYLSWLQQRPGQPPRLLIYKISNRFSGVPDRFSGSGSGTDFTLKISRVEAEDVGVYYCMQATQFPHEMYTFGQGTKLEIR
B4: BD-692 (antibody, V domains shown)
VH: EVQLVESGGGLVQPGGSLRLSCAASGFTFSSHGMNWVRQAPGKGLEWVSYISSRDSTIYYADSVKGRFTISRDNAKNSLYLQMNSLRDEDTAVYYCARDNSDYDYSFGAYYFDYWGQGTLVTVSS
VL: EIVLTQSPATLSLSPGERATVSCRASQSVSNFLAWYQQKPGQAPRLLIHDASNRATGIPARFSGSGSGTDFTLTISSLEPEDFAVYYCQQRRNWPPVTFGQGTRLEIK
B5: BD55-5300 (antibody, V domains shown)
VH: QVQLVQSGAEVKKPGSSVKVSCKASGGSFTSHAVSWVRQAPGQGLEWMGVSIPLFGTAKYAQKFQGRVTITADESTSTVYMSLSNLRSGDTAVYYCARLFPNGTPTDLTAPSDYWGQGTLVTVSS
VL: DIQMTQSPSSLSASVGDRVTITCQASQDIGNYLNWYQQKPGKAPKLLIYDASHLETGVPSRFSGSASGTDFTLTISSLQPDDIATYYCQRYDDVPTYTFGQGTKLEIK
B6: COV2-2828 (antibody, V domains shown)
VH: EVQLVESGGGLVKPGGSLRLSCAASGFTFRDYSMNWVRQAPGKGLEWVSSISSGGSYIYYADSVKGRFTISRDNAKNSLYLQMNSLRAEDTAVYYCARGGSILWWLIDYWGQGTLVTVSS
VL: NFMLTQPHSVSESPGKTVTISCTGSSGSIASNYVQWYQQRPGSAPTTVIYEDNQRPSGVPDRFSGSIDSSSNSASLTISGLKTEDEADYYCQSYDSTSRVVFGGGTKLTVL
B7: BD-708 (antibody, V domains shown)
VH: QVQLVESGGGVVQPGRSLRLSCAASGFTLSNYAMHWVRQAPGTGLEWVAVISDDGSIKFYADSVKGRFTISRDNSKNTLYLQMNSLRAEDTAVYYCARDGDDSSGYFFDYWGQGTLVTVSS
VL: DIQMTQSPSSLSASVGDRVTITCRASQGINNFLAWYQQKPGKAPKLLLYSASRLESGVPSRFSGSGSGTDYTLTISSLQPEDFATYYCQQYYSTLALTFGGGTKVEIK
B8: DH1047 (antibody, V domains shown)
VH: QVQLVQSGAEVKKPGASVQVSCQASANTFTNHYIHWVRQAPGQGLEWMGIIYPTGGNTIYAQGFQGRVTMTRDTSLNTIYLELSSLRSEDTAVYYCARDVRVDDSWSGYDLLSGGTYFDYWGQGTLVTVSS
VL: not shown
B9: COV2-2103 (antibody, V domains shown)
VH: EVQLVESGGGLVQPGGSLRLSCAASGFTFSRHWMTWVRQAPGKGLEWVANIKQDGSEKYYVDSVKGRLTISRDNAKNSLYLQMNSLRAEDTAVYYCARLGFYYGGADYWGQGTLVTVSS
VL: NFMLTQPHSVSESPGKTVTISCTGSSGSIASNYVQWYQQRPGSAPTTVISEDNQRPSGVPDRFSGSIDSSSNSASLTISGLKTEDEADYYCQSYDGINRAWVFGGGTKLTVL
B10: BD55-1237 (antibody, V domains shown)
VH: QVQLVESGGGVVQPGRSLRLSCATSDFTSNTYGIHWVRQAPGKGLEWVAVIWSDGSHEYYADSVKGRFTISRDNSKNTVYLQMASLRPEDTALYYCAKSPWLRGSFDVWGQGTVVPVSS
VL: NFLLTQPHSVSESPGKTVTISCSGSSGYIASNYVQWYQQRPGSAPIVVMYEDNQRPSGVPDRFSGSIDSSSNSASLTISGLKTEDEADYYCQSYDSDNRAWVFGGGTKLTVL
B11: BD55-3500 (antibody, V domains shown)
VH: QVQLVESGGGVVQPGRSLRLSCAASGFIFSRYDIHWVRQTPGKGLEWVALIRYDGSDKYYADSVKGRFTISRDNSKNTLYLQMNSLRVEDTAVYYCAKEGIQGYSGYDYFWTGFYFDYWGQGTLVTVSS
VL: not shown
B12: BD55-3372 (antibody, V domains shown)
VH: EVHLVESGGGLVKPGGSLRLSCAASGFTFSNYAMNWVRQAPGKGLQWVSSITGSSSFIFYADSVKGRFTIVRDNAQNSLYLQMNSLRDEDTAVYYCARERDDYDTRLDWGQGTLVTVSS
VL: QPMLTQPPSVSGAPGQTVTISCVGSSSNIGAGYEVHWYQQLPGTAPKRLLSGNSDRPSGVPDRFSGSKSGTSASLAITGLQADDEADYYCQSYDSSLSLSAVVFGGGTKLTVL
B13: BD55-5226 (antibody, V domains shown)
VH: EVQLVESGGGLVKPGGSLRLSCAASGFTFSSYSMNWVRQAPGKGLEWVSSISMTSSYRHYADSVRGRFTISRDNANNSLFLQMNSLRAEDTAVYFCARDSNLRTGDANDYWGQGTLVTVSS
VL: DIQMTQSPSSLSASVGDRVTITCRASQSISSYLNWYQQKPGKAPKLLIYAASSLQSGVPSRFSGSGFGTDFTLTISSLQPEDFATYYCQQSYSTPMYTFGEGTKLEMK
B14: COVA1-16 (antibody, V domains shown)
VH: QVQLVQSGAEVKKPGASVKVSCKASGYTFTSYYMHWVRQAPGQGLEWMGIINSSGGSTSYAQKFQGRVTMTRDTSTSTVYMELSSLRSEDTAVYYCARPPRNYYDRSGYYQRAEYFQHWGQGTLVTVSS
VL: DIQLTQSPSSLSASVGDRVTITCQASQDISNYLNWYQQRPGKAPKLLIYDASNLETGVPSRFSGSGSGTDFTFTISSLQPEDIATYYCQQYDNPPLTFGGGTKLEIK
B15: BD55-5339 (antibody, V domains shown)
VH: EVQLVESGEGLVQPGGSLRISCAASGFTFSNYPMHWVRQAPGQGLESVSSITSNGDGTFYANSVKGRFTISRDNSKNTLYLQMGSLRTEDTALYFCAREVAEQLDCYFDLWGRGTLVTVSS
VL: DIQMTQSPSSLSASVGDRVTITCRASQSIRTYLNWYQHKPGKAPKLLIFAASSLQSGVPSRFSGSGSGTDFSLTISSLQPEDFATYYCQQSYITPPITFGQGTRLEIK
B16: BD-801 (antibody, V domains shown)
VH: DVQLVESGGGLVQPGGSRRLSCAASGFMFSSYWMNWVRQAPGKGLEWVASIKEDGSEKYYVDSVKGRFTISRDNAKNSLFLQMNSLRAEDTAVYYCARKCRGYYDRSGYYYKCAFDIWGQGTMVTVSS
VL: PYVLTQPPSVSVAPGKTARITCGGNNLGTNSVHWYQQKPGQAPVLVMYYDSDRPSGIPERFSGSNSGNTATLTISRVDAGDEADYYCQVWDSSSDHWVFGGGTKLTVL

biological target: SARS-CoV-2 Omicron (B.1.1.529) RBD (SARS-CoV-2 Omicron B.1.1.529 (BA.1), strain)

Row | Binder | binding result
1 | B1 | binds
2 | B2 | binds
3 | B3 | binds
4 | B4 | binds
5 | B5 | binds
6 | B6 | binds
7 | B7 | binds
8 | B8 | binds
9 | B9 | binds
10 | B10 | binds
11 | B11 | binds
12 | B12 | binds
13 | B13 | binds
14 | B14 | binds
15 | B15 | binds
16 | B16 | binds
